Experimental data: patent US6645934B1, “Peptide with radio protective effect” (Eberhard-Karls-Universität Tübingen, priority 1997, dated 2003)
Bridges are numbered along the chain shown (N, C = ends).

What was measured:
TPCK-treated trypsin = molecular target: T1, TPCK-treated trypsin (Bos taurus, UniProt P00760); assay: Protease inhibition test, trypsin; format: biochemical; settings: FIG. 8
T1 sequence (P00760 24-246): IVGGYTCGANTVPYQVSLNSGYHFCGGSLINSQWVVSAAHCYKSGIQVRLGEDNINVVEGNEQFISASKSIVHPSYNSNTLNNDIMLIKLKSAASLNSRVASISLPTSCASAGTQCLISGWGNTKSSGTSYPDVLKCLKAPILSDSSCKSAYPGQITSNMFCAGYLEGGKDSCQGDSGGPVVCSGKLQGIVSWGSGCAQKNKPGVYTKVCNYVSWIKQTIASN
Protocol: (§1) A batch containing 50 μl TLCK-treated chymotrypsin (0.1 mg/ml) was incubated for 10 minutes in 12.5% DMSO and 87.5% PBS with 50 μl of a solution having BBI (BBI), reduced BBI (BBI-R), or reduced and alkylated BBI (BBI-A) together with 50 μl PBS and 50 μl of the chymotrypsin substrate acetyl-A-A-P-F-pNa (0.5 mg/ml, of Bachem Heidelberg, Germany). The colored reaction product was detected at 405 nm in a spectrophotometer.
If inhibition of the protease trypsin (see Example 4, FIG. 8) was to be determined, TPCK-treated trypsin (0.1 mg/ml) and the peptide CBZ-R-pNa (1 mg/ml) as substrate were used, and the test was otherwise performed as described.

human skin fibroblasts = assay: Clonogenic assay with human skin fibroblasts under UV-B irradiation; format: cell-based; settings: UV-B radiation at 100 J/m^2, FIG. 6; for effect on clonogenic survival, further increase over that of complete BBI / effect on clonogenic survival compared with complete BBI: peptides 80 μM vs BBI 10 μM; for increase in clonogenic survival of the human skin fibroblasts compared to the untreated cells: BBI 10 μM, peptides 80 μM
Protocol: (§2) Normal human fibroblasts were cultivated in Dulbecco's Modified Eagles Medium (DMEM) with 10% fetal calf serum under standard conditions. At each cell passage the number of cells was counted, and the cells were seed with a density of 2×10^4/cm^2 when subcultures were set up.
(§3) For the clonogenic assay, secondary fibroblasts were trypsinated with 0.05% trypsin and 0.1 EDTA, and seed at a cell density of 50 cells per cm^2 into six-well tissue culture dishes. The cells were cultivated with 2 ml DMEM with 20% fetal calf serum per well.
(§4) After 24 hours the medium was removed and the cells were incubated for 16 hours either in additive-free control mediums (“0” in the Figures) or in medium that contained 10 μM of either BBI or a modified BBI form or a BBI fragment. The nonapeptides and heptapeptide according to the present invention (see Example 3) were used at a concentration of 80 μM.
(§5) The cells were then cultivated for a further eight days in BBI-free culture medium in order to allow colonies to form. The cells were then fixed, stained, and counted; in the Figures, “K” indicates the absolute number of clones counted.
(§6) A clone is a colony or a cell cluster resulting from the division of one cell during the eight-day cultivation period. The number of clones corresponds to the degree to which the human fibroblasts survived the irradiation. This will therefore also be referred to hereinafter as the “clonogenic survival” of the cells. If many cells die when the cells are irradiated, then only a few clones will form after eight days; if many cells survive, then many clones may be counted after eight days of cultivation. The clonogenic survival of the cells after irradiation is thus a direct indication of the radioprotective effect of the BBI product being used.
Once again a clonogenic assay was performed, using complete BBI or the four peptides P1 through P4.
In this case irradiation was performed with UV-B radiation at 100 J/m^2.

[1] = molecular target: TLCK-treated chymotrypsin (Bos taurus, UniProt P00766); assay: Protease inhibition test, chymotrypsin; format: biochemical
Protocol: as §1
A batch without BBI (0) was run as control, and its measured value was taken as 100% chymotrypsin activity (% CH). The blank value with buffer alone is labeled “-” and indicates the cuvette and buffer solution background.

Normal human fibroblasts [2] = assay: Clonogenic assay with normal human fibroblasts under ionizing radiation; format: cell-based; settings: for radioprotective effect compared with complete BBI and the other peptides (clonogenic assay): single dose of 4 Gy, peptides 80 μM, complete BBI 10 μM, FIG. 5; for influence on survival of the cells without irradiation (clonogenic assay): 0 Gy, 10 μM, 16 h incubation, FIG. 1
Protocol: The examination of the radioprotective effect of BBI and of modified forms of BBI was performed as a so-called clonogenic assay, which is described, for example, in K. Dittmann et al., Radiotherapy and Oncology 34 (1995), pages 137-143, and is explained briefly below.
as §2, §3, §4
This was followed by irradiation with ionizing radiation, the energy dose being either 2 or 4 gray (Gy). This energy dose corresponds to the entire converted radiation energy given in mass unit Joule/kg=(gray). A 6 MeV linear accelerator (Mevatron, Siemens) was used for irradiation.
as §5, §6

trypsin (TPCK-treated) = assay: cell-based or functional assay
[3] = molecular target: chymotrypsin (TLCK-treated); assay: cell-based or functional assay
Normal human fibroblasts [4] = settings: publication of Dittmann et al.; cited from earlier work
[5] = FIG. 2, control without BBI = 100% chymotrypsin activity

With “Peptide P2: heptapeptide SEQ ID NO: 3, no cysteine residues, linear; acetyl and amide protective groups (Ac-ALSYPAQ-NH2)” the “inhibition of the activity of trypsin” value (TPCK-treated trypsin; 0.1 mM) was “no effect on the activity of trypsin”, the “effect on clonogenic survival, further increase over that of complete BBI” value (human skin fibroblasts) was 20% and the “inhibition of chymotrypsin activity” value ([1]; 0.1 mM, FIG. 7) was “only a few percent or not at all”.

For “Peptide P3: nonapeptide SEQ ID NO: 1, terminal cysteine residues not crosslinked; acetyl and amide protective groups (Ac-CALSYPAQC-NH2; cysteine pairing not given here)”, the “radioprotective effect compared with complete BBI and the other peptides (clonogenic assay)” value (Normal human fibroblasts [2]) was “even more pronounced radioprotective effect than peptides P2 (heptapeptide) and P4”, the “inhibition of the activity of trypsin” value (TPCK-treated trypsin; 0.1 mM) was “no effect on the activity of trypsin” and the “effect on clonogenic survival, further increase over that of complete BBI” value (human skin fibroblasts) was 20%. The “inhibition of chymotrypsin activity” value ([1]; 0.1 mM, FIG. 7) was “only a few percent or not at all”.

With “Peptide P1: nonapeptide SEQ ID NO: 1, terminal cysteine residues crosslinked with a disulfide bond; acetyl and amide protective groups (Ac-CALSYPAQC-NH2; disulfide 1-9; SMILES CC(=O)N[C@H]1CSSC[C@@H](C(N)=O)NC(=O)[C@H](CCC(N)=O)NC(=O)[C@H](C)NC(=O)[C@@H]2CCCN2C(=O)[C@H](Cc2ccc(O)cc2)NC(=O)[C@H](CO)NC(=O)[C@H](CC(C)C)NC(=O)[C@H](C)NC1=O)” the “radioprotective effect compared with complete BBI and the other peptides (clonogenic assay)” value (Normal human fibroblasts [2]) was “even more pronounced radioprotective effect than peptides P2 (heptapeptide) and P4”, the “inhibition of the activity of trypsin” value (TPCK-treated trypsin; 0.1 mM) was “no effect on the activity of trypsin” and the “effect on clonogenic survival compared with complete BBI” value (human skin fibroblasts) was “just as pronounced an effect as the addition of complete BBI”. For the same molecule, the “inhibition of chymotrypsin activity” value ([1]; 0.1 mM, FIG. 7) was “only a few percent or not at all”.

In the case of “Peptide P4: nonapeptide SEQ ID NO: 2 (serine to valine exchange), terminal cysteines not crosslinked; acetyl and amide protective groups (Ac-CALVYPAQC-NH2; cysteine pairing not given here)”, the “inhibition of the activity of trypsin” value (TPCK-treated trypsin; 0.1 mM) is reported as “no effect on the activity of trypsin”, the “increase in clonogenic survival of the human skin fibroblasts compared to the untreated cells” value (human skin fibroblasts) is reported as “significantly increased” and the “effect on clonogenic survival compared with complete BBI” value (human skin fibroblasts) is reported as “less of an effect than complete BBI”. The “inhibition of chymotrypsin activity” value ([1]; 0.1 mM, FIG. 7) was “only a few percent or not at all”.

B1: Bowman-Birk Protease Inhibitor (BBI), complete (protein, soybean, UniProt P01055 40-110, looked up)
chain: DDESSKPCCDQCACTKSNPPQCRCSDMRLNSCHSACKSCICALSYPAQCFCVDITDFCYEPCKPSEDDKEN
Molecule B1 has an inhibition of trypsin activity at 0.05 mM BBI (substrate CBZ-R-pNa) (trypsin (TPCK-treated)) greater than 90%, an inhibition of trypsin activity at 0.1 mM BBI (substrate CBZ-R-pNa) (trypsin (TPCK-treated)) greater than 90% and an inhibition of chymotrypsin activity (substrate acetyl-A-A-P-F-pNa, 405 nm) [3] of 80%. For the same molecule, the inhibition of chymotrypsin activity at 0.05 mM BBI [3] was 80% and the inhibition of chymotrypsin activity at 0.1 mM BBI [3] was 90%.

B2: reduced BBI (BBI-R) (protein, soybean, UniProt P01055 40-110, looked up)
chain: B1 chain
modifications: pretreated with dithiothreitol (DTT) so that all the disulfide bonds in the BBI were cleaved (cysteines reduced)
In the case of B2, the inhibition of chymotrypsin activity (substrate acetyl-A-A-P-F-pNa, 405 nm) [3] is reported as 30%.

B3: BBI-A: BBI first reduced, cysteine residues then alkylated with iodoacetamide to prevent reoxidation (protein)
chain: B1 chain
In the case of B3, the “influence on survival of the cells without irradiation (clonogenic assay)” value (Normal human fibroblasts [2]) is reported as “does not influence survival of the cells within experimental error” and the “inhibition of chymotrypsin activity” value [1, 5] is reported as “no longer capable of inhibiting chymotrypsin activity”.

B4: Bowman-Birk Protease Inhibitor (protein)
chain: B1 chain
notes: complete BBI (from Sigma Biochemicals)
For B4, the “influence on survival of the cells without irradiation (clonogenic assay)” value (Normal human fibroblasts [2]) was “does not influence survival of the cells within experimental error”, the “inhibition of the activity of trypsin” value (TPCK-treated trypsin; 0.05 mM) was “more than 90%” and the “inhibition of the activity of trypsin” value (TPCK-treated trypsin; 0.1 mM) was “more than 90%”. For the same molecule, the “radiation-induced mortality of cultivated human fibroblasts” value (Normal human fibroblasts [4]) was “decreases the radiation-induced mortality”, the “increase in clonogenic survival of the human skin fibroblasts compared to the untreated cells” value (human skin fibroblasts) was “approximately 40%” and the “inhibition of chymotrypsin activity” value ([1]; 0.05 mM, FIG. 7) was 80%. For the same molecule, the “inhibition of chymotrypsin activity” value ([1]; 0.1 mM, FIG. 7) was 90% and the “inhibition of chymotrypsin activity” value [1, 5] was 80%.

B5: BBI-R: complete BBI pretreated with the reducing agent dithiothreitol (DTT), so that all the disulfide bonds were cleaved (protein)
chain: B1 chain
modifications: cyclised or stapled
notes: complete BBI pretreated with the reducing agent dithiothreitol (DTT), so that all the disulfide bonds were cleaved
For B5, the “influence on survival of the cells without irradiation (clonogenic assay)” value (Normal human fibroblasts [2]) was “does not influence survival of the cells within experimental error” and the “inhibition of chymotrypsin activity” value [1, 5] was “about 30%”.
